Columns and labels:
[1] = molecular target: T1, TlGUS L1 (Treponema lecithinolyticum β-glucuronidase) (Treponema lecithinolyticum, UniProt A0AA82WPE8); assay: […] Å crystal structure (as ciprofloxacin-GlcA conjugate formed with PNPG); IC50; assay type: biochemical
T1 construct: recombinant, N-terminal (His)6 tag retained

[2] = molecular target: Tannerella forsythia GUS L2 (loop 2 β-glucuronidase) (Tannerella forsythia); assay: SEC-MALS; Superdex 200; protein at 2 mg/ml in 20 mM Hepes (pH 7.4), 300 mM NaCl; 50 μl injected, 0.5 ml/min
[3] = molecular target: Tannerella forsythia GUS L2 (loop 2 β-glucuronidase) (Tannerella forsythia); assay: crystal structure; hanging drop vapor diffusion at room temperature; quaternary structure seen in the crystal
[4] = molecular target: Treponema lecithinolyticum GUS L1 (loop 1 β-glucuronidase) (Treponema lecithinolyticum); assay: SEC-MALS; Superdex 200; protein at 2 mg/ml in 20 mM Hepes (pH 7.4), 300 mM NaCl; 50 μl injected, 0.5 ml/min
[5] = molecular target: Treponema lecithinolyticum GUS L1 (loop 1 β-glucuronidase) (Treponema lecithinolyticum); assay: crystal structure; hanging drop vapor diffusion at room temperature; quaternary structure seen in the crystal
[6] = molecular target: T1, TlGUS L1 (Treponema lecithinolyticum β-glucuronidase); assay: […] Å crystal structure (as UNC4917-GlcA conjugate formed with PNPG); 4-MUG hydrolysis IC50; assay type: biochemical
[7] = molecular target: T1, TlGUS L1 (Treponema lecithinolyticum β-glucuronidase); assay: […] Å crystal structure; assay type: binding
[8] = molecular target: Tannerella forsythia GUS mL1 (mini-loop 1 β-glucuronidase) (Tannerella forsythia); assay: SEC-MALS; Superdex 200; protein at 2 mg/ml in 20 mM Hepes (pH 7.4), 300 mM NaCl; 50 μl injected, 0.5 ml/min
[9] = molecular target: Tannerella forsythia GUS mL1 (mini-loop 1 β-glucuronidase) (Tannerella forsythia); assay: crystal structure; hanging drop vapor diffusion at room temperature; quaternary structure seen in the crystal
[10] = test system: Cc1cc(=O)oc2cc(O[C@@H]3O[C@H](C(=O)O)[C@@H](O)[C@H](O)[C@H]3O)ccc12; assay: purified protein; conditions: pH 5.0
[11] = substrate: Cc1cc(=O)oc2cc(O[C@@H]3O[C@H](C(=O)O)[C@@H](O)[C@H](O)[C@H]3O)ccc12; assay: purified protein; conditions: pH 5.0; remark: listed apart in the source

Molecule: O=C(O)c1cn(C2CC2)c2cc(N3CCNCC3)c(F)cc2c1=O [ciprofloxacin]
- IC50 [1]: 18.3 µM

Molecule: Tannerella forsythia GUS L2 (loop 2 β-glucuronidase) (enzyme)
- stoichiometry N [2]: 2
- stoichiometry N [3]: 2

Molecule: Treponema lecithinolyticum GUS L1 (loop 1 β-glucuronidase) (enzyme)
- stoichiometry N [4]: 4
- stoichiometry N [5]: 4

Molecule: CNc1ccc2c(n1)sc1c(N3CCNCC3)nc(NC)nc12 [UNC4917]
- IC50 [6]: 2.5 µM

Molecule: CNc1ccc2c(n1)sc1c(N3CCN([C@@H]4O[C@H](C(=O)O)[C@@H](O)[C@H](O)[C@H]4O)CC3)nc(NC)nc12 [UNC4917-GlcA, UNC4917-GlcA conjugate]
- 1.75 Å crystal structure [7]: The UNC4917-GlcA conjugate is located within the active site

Molecule: Tannerella forsythia GUS mL1 (mini-loop 1 β-glucuronidase) (enzyme)
- stoichiometry N [8]: 4
- stoichiometry N [9]: 4

Molecule: TlGUS L1 (Treponema lecithinolyticum β-glucuronidase) (Treponema lecithinolyticum)
- Km [10]: 6.8 ± 1 µM
- kcat [10]: 19 ± 1 s⁻¹
- kcat/Km [10]: 2.8e+06 M⁻¹ s⁻¹

B1: human GUS (β-glucuronidase) (Homo sapiens) (protein)
chain: LQGGMLYPQESPSRECKELDGLWSFRADFSDNRRRGFEEQWYRRPLWESGPTVDMPVPSSFNDISQDWRLRHFVGWVWYEREVILPERWTQDLRTRVVLRIGSAHSYAIVWVNGVDTLEHEGGYLPFEADISNLVQVGPLPSRLRITIAINNTLTPTTLPPGTIQYLTDTSKYPKGYFVQNTYFDFFNYAGLQRSVLLYTTPTTYIDDITVTTSVEQDSGLVNYQISVKGSNLFKLEVRLLDAENKVVANGTGTQGQLKVPGVSLWWPYLMHERPAYLYSLEVQLTAQTSLGPVSDFYTLPVGIRTVAVTKSQFLINGKPFYFHGVNKHEDADIRGKGFDWPLLVKDFNLLRWLGANAFRTSHYPYAEEVMQMCDRYGIVVIDECPGVGLALPQFFNNVSLHHHMQVMEEVVRRDKNHPAVVMWSVANEPASHLESAGYYLKMVIAHTKSLDPSRPVTFVSNSNYAADKGAPYVDVICLNSYYSWYHDYGHLELIQLQLATQFENWYKKYQKPIIQSEYGAETIAGFHQDPPLMFTEEYQKSLLEQYHLGLDQKRRKYVVGELIWNFADFMTEQSPTRVLGNKKGIFTRQRQPKSAAFLLRERYWKIANETRYPHSVAKSQCLENSLFT
- Km [11]: 84 ± 7 µM
- kcat [11]: 2.2 s⁻¹
- kcat/Km [11]: 26000 M⁻¹ s⁻¹
